Measurements: patent US20210403593A1 (TIZONA THERAPEUTICS, published 2021)
Residue numbers refer to the chain shown, from its start. Each block holds one binder with its values, some of them ahead of it.

What was measured:
Chimera #9 = target: T1, Chimera #9 (Homo sapiens (Human), UniProt P49961 1-510); assay: FACS on CHO cells; Chimera 2 with human D150 ([..])
T1 construct: Expressed on CHO cells
T1 chain: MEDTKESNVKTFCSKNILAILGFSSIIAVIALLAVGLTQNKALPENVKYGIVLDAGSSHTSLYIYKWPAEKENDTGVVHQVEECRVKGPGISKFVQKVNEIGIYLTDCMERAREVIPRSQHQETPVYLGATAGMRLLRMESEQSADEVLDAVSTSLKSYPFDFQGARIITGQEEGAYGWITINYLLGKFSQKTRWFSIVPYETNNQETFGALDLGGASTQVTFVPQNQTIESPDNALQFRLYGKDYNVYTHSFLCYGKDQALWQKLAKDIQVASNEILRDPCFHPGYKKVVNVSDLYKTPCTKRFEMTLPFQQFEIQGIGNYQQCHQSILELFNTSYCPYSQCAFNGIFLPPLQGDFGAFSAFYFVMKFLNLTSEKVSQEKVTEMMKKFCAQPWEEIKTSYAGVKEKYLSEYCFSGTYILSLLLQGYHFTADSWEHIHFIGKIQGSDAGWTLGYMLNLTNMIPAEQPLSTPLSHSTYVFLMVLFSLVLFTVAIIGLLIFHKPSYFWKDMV
Procedure: (§1) The chimeras were expressed in CHO cells and the ability of anti-human CD39 antibodies to bind the chimeras tested via FACS. In brief, cells were washed and blocked in FACS buffer (PBS/2% FBS) for 30 min on ice. […] After 2 washes, cells were resuspended in FACS buffer and analyzed on BD Fortessa. Data was processed with FlowJo. Positive binding was scored as “yes” and lack of binding was scored as “NO” and examples of FACS plots used to generate this table are in FIGS. 14.F and 14.G.

Chimera #14 = target: T2, Chimera #14 (Homo sapiens (Human), UniProt P49961 1-510); assay: FACS on CHO cells; human CD39 with mouse S153 and T154
T2 construct: Expressed on CHO cells
T2 sequence: T1 chain with Q143E, S144L, E147R, A151V, K157S, S158N
Procedure: as §1

Chimera #4 = target: T3, Chimera #4 (Homo sapiens (Human), UniProt P49961 1-510); assay: FACS on CHO cells, 15 ug/ml; human M1-S274 + mouse GGV + human L278-V510
T3 construct: Expressed on CHO cells
T3 chain: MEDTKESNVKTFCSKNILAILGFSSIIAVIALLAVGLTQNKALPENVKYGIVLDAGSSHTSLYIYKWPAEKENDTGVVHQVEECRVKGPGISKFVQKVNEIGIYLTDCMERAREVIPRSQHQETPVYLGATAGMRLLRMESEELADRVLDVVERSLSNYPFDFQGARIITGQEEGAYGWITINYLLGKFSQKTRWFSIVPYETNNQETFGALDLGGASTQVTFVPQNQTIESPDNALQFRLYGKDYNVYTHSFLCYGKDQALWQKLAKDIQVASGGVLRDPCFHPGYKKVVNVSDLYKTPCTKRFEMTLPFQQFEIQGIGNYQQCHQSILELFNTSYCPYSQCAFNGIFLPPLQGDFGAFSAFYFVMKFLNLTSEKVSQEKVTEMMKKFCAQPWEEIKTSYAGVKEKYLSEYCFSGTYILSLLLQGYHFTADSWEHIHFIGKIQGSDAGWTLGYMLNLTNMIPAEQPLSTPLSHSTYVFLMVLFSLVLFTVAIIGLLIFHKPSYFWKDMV
Procedure: (§2) The chimeras were expressed in CHO cells and the ability of anti-human CD39 antibodies to bind the chimeras tested via FACS. In brief, cells were washed and blocked in FACS buffer (PBS/2% FBS) for 30 min on ice. […] After 2 washes, cells were resuspended in FACS buffer and analyzed on BD Fortessa. Data was processed with FlowJo.

human CD39 (cellular) = target: T4, human CD39 (cellular) (human, UniProt P49961 1-510); assay: flow cytometry, 100 nM IgG, MFI on CHO-hCD39 / MFI on parental CHO;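 also: cells exposed to IgG for 30 min on ice in PBS, bound antibody then revealed with a fluorescent goat anti-human IgG secondary (20 min, on ice)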
T4 construct: Same protein on engineered CHO cells and on cells that express it endogenously; also called hCD39; cellular CD39
T4 sequence: T3 chain with G275N, G276E, V277I
Procedure: 100 nanomolar IgGs (each antibody is indicated as a unique clone number in the FIG.) were incubated at 25° C. for 30 minutes on ice in phosphate buffered saline (PBS) with parental CHO cells or CHO cells engineered to express either human or cynomolgus macaque (Macaca fascicularis) CD39 (CHO CD39 cells). Cells were then washed with ice cold PBS and incubated with a fluorescently labeled goat-anti-human IgG for 20 minutes on ice. Cells were washed and resuspended in ice cold PBS prior to analysis by flow cytometry.

Chimera #13 = target: T5, Chimera #13 (Homo sapiens (Human), UniProt P49961 1-510); assay: FACS on CHO cells; human CD39 with mouse D99 and T154
T5 construct: Expressed on CHO cells
T5 sequence: T3 chain with N99D, R154T, G275N, G276E, V277I
Procedure: as §2

- binding result (Chimera #9): no binding (tested: 15 ug/ml)
- binding result (Chimera #14): no binding (tested: 15 ug/ml)
- binding result (Chimera #4): binds
- Cell Binding (FOB) (human CD39 (cellular)): 1110 fold over background
- binding result (Chimera #13): no binding (tested: 15 ug/ml)
B1: 31901 (antibody, human IgG4 S228P, kappa, V domains shown)
VH: QVQLVQSGAEVKKPGSSVKVSCKASGGTFSSLPISWVRQAPGQGLEWMGGIGFGTANYAQKFQGRVTITADESTSTAYMELSSLRSEDTAVYYCARGGAKYAGRYGMDVWGQGTTVTVSS
VL: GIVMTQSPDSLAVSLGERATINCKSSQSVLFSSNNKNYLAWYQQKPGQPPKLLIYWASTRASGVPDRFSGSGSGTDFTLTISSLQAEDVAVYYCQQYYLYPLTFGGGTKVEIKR

- binding result (Chimera #9): no binding (tested: 15 ug/ml)
- binding result (Chimera #14): no binding (tested: 15 ug/ml)
- binding result (Chimera #4): binds
- Cell Binding (FOB) (human CD39 (cellular)): 1080 fold over background
- binding result (Chimera #13): no binding (tested: 15 ug/ml)
B2: 31905 (antibody, human IgG4 S228P, kappa, V domains shown)
VH: B1 VH with S30P, L32N, P33A, G103R, R104T
VL: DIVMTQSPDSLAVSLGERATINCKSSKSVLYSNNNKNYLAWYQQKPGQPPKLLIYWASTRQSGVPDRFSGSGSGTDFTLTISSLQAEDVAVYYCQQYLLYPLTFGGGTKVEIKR
